Measured values published in paper PMC3213119.

Molecular target: TssM-ekto (periplasmic domain of TssM, 386-1129), after TEV cleavage (enteroaggregative Escherichia coli strain 17-2)
Test: SEC-MALS; MALS/QELS/UV/RI of the TssM-ekto/TssJ complex; 10 mM HEPES pH 7.5, 150 mM NaCl

TssJ (enteroaggregative E. coli Sci1 T6SS), residues 2-155 of the processed lipoprotein, fusion and tag cleaved (domain or fragment)
stoichiometry N: 1
